Among the data in paper PMC11751877 are Kd, koff and kon values, retold here.

The target of experiment [1] is ALK4-Fc (Fc-fused ALK4 ligand-binding domain). Description: SPR; Biacore 3000, 25°C; about 500 RU of ALK4-Fc captured on anti-human IgG (Fc) CM5 chip, Fc-free Cripto-1 injected at varying concentrations; HBS/EPS with 0.5 M NaCl and 0.1% BSA, pH 7.4; KD = kd/ka. (Surface plasmon resonance follows binding to a sensor surface in real time, without labels.)
Experiment [2] has as its target Cripto-1 EC-Fc (EGF-like and CFC domains fused to human IgG1 Fc) (human). Kind of experiment: SPR; Biacore 3000, 25°C; about 500 RU of Cripto-1-Fc construct captured on anti-human IgG (Fc) CM5 chip, Nodal injected at several concentrations; HBS/EPS (0.01 M Hepes, 0.5 M NaCl, 3 mM EDTA, 0.005% Tween 20, pH 7.4) with 0.1% BSA; 50 μL/min; fitted to a 1:1 or bivalent analyte model, KD = kd/ka; apparent.

The target of experiment [3] is full-length Cripto-1-Fc (NEC-Fc), soluble full-length variant lacking the GPI anchor, fused to human IgG1 Fc (human). The description is as above.
full-length Cripto-1-Fc (NEC-Fc), soluble full-length variant lacking the GPI anchor, fused to human IgG1 Fc (human), sequence (P13385 31-163, stated change not applied): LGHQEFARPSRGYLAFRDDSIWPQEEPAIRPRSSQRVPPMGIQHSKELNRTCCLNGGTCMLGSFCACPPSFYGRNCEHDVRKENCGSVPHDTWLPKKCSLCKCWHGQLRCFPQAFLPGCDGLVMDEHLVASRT
Experiment [4] addresses Cripto-1 NE-Fc (N-terminal and EGF-like domains fused to human IgG1 Fc) (human). The experiment is described as above.
Experiment [5] addresses Cripto-1 E-Fc (EGF-like domain fused to human IgG1 Fc) (human). The description is as above.

As usually defined, the koff is a measure of how fast the partners let go of each other. Usually kon stands for the second-order rate constant of association. For “Fc-free Cripto-1 (soluble Cripto-1 from which the Fc fragment had been proteolytically removed) (domain or fragment)”, in experiment [1], the Kd worked out at 79.9 nM, the off-rate (koff) worked out at 0.00179 s⁻¹ and the kon was 22400 M⁻¹ s⁻¹.

B1: Nodal (ligand)
chain: HHLPDRSQLCRKVKFQVDFNLIGWGSWIIYPKQYNAYRCEGECPNPVGEEFHPTNHAYIQSLLKRYQPHRVPSTCCAPVKTKPLSMLYVDNGRVLLDHHKDMIVEECGCL
Regarding B1, the Kd was determined as 14.3 nM in experiment [2], 10.1 nM in experiment [3], 10.4 nM in experiment [4] and 27.8 nM in experiment [5]. The koff in experiment [2] amounted to 0.000404 s⁻¹; in experiment [3], 0.0116 s⁻¹; in experiment [4], 0.00104 s⁻¹; in experiment [5] it was 0.00541 s⁻¹. Besides, the on-rate constant (kon) in experiment [2] turned out to be 28200 M⁻¹ s⁻¹; in experiment [3], 1.14e+06 M⁻¹ s⁻¹; in experiment [4] it was 34100 M⁻¹ s⁻¹; in experiment [5], 195000 M⁻¹ s⁻¹.
